The results in this text go back to paper PMC11040006, “Molecular basis of an atypical dsDNA 5mC/6mA bifunctional dioxygenase CcTet from Coprinopsis cinerea in catalyzing dsDNA 5mC demethylation” (Nucleic Acids Research, 2024).

Data set [1] concerns the target T1, CcTet-ΔN16 (CcTet-Δ16; CcTet) (Coprinopsis cinerea, UniProt A8P1J0).
T1 construct: gene CC1G_05589; N-terminal 16 residues deleted; His-SUMO1 tag removed by Ulp1; expressed in E. coli BL21(DE3) from pET-SUMO
T1 sequence (A8P1J0 17-430): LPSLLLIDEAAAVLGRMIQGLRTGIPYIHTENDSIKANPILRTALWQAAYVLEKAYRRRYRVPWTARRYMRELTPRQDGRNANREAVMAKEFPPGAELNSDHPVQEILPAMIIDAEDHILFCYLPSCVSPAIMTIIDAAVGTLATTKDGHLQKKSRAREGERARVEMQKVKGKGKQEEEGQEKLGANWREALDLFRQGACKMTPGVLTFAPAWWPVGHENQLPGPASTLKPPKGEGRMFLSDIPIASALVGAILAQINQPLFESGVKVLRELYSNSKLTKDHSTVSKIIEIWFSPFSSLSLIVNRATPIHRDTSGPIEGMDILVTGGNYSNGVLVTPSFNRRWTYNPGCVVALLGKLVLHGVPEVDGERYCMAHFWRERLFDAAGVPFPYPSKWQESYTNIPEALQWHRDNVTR
Kind of data set: X-ray crystallography, […] Å. To be noted: complex with Mn2+ and 12-bp 5mC-dsDNA; 2 mM NOG in the crystallization mix; 2-oxoglutarate site. In kind it is binding.

Data set [2] deals with T2, CcTet-ΔN16 R92A (Coprinopsis cinerea, UniProt A8P1J0 17-430, R92A).
T2 sequence: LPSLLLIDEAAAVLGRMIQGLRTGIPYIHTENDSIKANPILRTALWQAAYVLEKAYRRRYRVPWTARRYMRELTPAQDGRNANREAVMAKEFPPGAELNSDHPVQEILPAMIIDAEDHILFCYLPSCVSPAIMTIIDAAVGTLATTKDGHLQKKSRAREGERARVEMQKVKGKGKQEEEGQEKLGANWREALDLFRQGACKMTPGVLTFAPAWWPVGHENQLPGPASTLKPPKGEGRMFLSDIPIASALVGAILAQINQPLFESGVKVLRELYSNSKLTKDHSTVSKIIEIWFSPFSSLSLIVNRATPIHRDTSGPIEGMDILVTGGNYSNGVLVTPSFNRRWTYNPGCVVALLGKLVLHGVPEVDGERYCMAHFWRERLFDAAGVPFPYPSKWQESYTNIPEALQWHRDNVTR
Kind of data set: MST; MST: NT-495 labeled protein, room temperature, 5 min incubation, buffer not stated (protein gel-filtration buffer 20 mM HEPES pH 7.0, 100 mM NaCl, 1 mM DTT). Crystals: 2 mM NOG, 1 mM MnCl2, protein:DNA 1:1.2, 20 mM sodium formate, 10% PEG8000, 277 K. To be noted: protein: recombinant; tags: N-terminal His-Sumo1, removed by Ulp1; blunt.

In data set [3] the target is T3, CcTet-ΔN16 H234A (Coprinopsis cinerea, UniProt A8P1J0 17-430, H234A).
T3 sequence: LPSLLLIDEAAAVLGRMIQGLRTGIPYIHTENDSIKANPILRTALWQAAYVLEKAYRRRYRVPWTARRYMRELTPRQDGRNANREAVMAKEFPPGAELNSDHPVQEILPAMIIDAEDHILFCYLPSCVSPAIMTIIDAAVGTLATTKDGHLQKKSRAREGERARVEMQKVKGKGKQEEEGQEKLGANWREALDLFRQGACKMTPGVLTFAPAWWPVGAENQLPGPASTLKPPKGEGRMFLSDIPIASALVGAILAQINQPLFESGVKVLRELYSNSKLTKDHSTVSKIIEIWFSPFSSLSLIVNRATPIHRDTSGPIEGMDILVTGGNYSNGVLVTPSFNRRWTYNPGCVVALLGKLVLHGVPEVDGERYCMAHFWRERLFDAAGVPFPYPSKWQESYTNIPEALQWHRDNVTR
The data set is described as above. The following applies: protein: recombinant; tags: N-terminal His-Sumo1, removed by Ulp1; blunt.

Data set [4] addresses T4, CcTet-ΔN16 R96A (Coprinopsis cinerea, UniProt A8P1J0 17-430, R96A).
T4 sequence: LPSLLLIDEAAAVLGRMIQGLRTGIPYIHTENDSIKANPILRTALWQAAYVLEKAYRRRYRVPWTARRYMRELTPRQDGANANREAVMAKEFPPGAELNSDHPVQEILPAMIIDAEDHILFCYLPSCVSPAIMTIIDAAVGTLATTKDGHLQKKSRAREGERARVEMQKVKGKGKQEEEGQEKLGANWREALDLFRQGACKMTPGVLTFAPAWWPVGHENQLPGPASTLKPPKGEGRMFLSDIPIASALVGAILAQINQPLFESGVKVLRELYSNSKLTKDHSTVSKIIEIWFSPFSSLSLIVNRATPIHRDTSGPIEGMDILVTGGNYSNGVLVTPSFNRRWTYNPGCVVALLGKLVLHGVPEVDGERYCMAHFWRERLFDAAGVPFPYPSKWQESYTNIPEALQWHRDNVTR
Described as above. The following applies: protein: recombinant; tags: N-terminal His-Sumo1, removed by Ulp1; blunt.

Data set [5] concerns the target T5, CcTet-ΔN16 (Coprinopsis cinerea, UniProt A8P1J0 17-430).
T5 sequence: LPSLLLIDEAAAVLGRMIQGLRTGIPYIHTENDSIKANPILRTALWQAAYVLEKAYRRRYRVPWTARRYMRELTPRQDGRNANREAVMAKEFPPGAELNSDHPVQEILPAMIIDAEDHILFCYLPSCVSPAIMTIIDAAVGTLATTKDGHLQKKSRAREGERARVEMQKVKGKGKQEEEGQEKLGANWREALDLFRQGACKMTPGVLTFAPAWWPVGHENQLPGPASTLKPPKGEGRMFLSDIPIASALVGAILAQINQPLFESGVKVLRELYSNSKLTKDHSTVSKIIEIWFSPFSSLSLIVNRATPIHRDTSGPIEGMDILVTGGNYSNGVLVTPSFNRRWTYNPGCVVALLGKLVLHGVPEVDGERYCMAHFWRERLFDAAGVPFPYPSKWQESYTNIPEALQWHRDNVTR
Kind of data set: X-ray crystallography (2.3 Å); Mn2+, N-oxalylglycine (NOG); MST: NT-495 labeled protein, room temperature, 5 min incubation, buffer not stated (protein gel-filtration buffer 20 mM HEPES pH 7.0, 100 mM NaCl, 1 mM DTT). Crystals: 2 mM NOG, 1 mM MnCl2, protein:DNA 1:1.2, 20 mM sodium formate, 10% PEG8000, 277 K. The following applies: protein: recombinant; tags: N-terminal His-Sumo1, removed by Ulp1; blunt; as printed, T of strand 2 (position 7) lies opposite 5mC6 (mismatch).

With `O=C(O)CNC(=O)C(=O)O` [N-oxalylglycine], in data set [1], the “X-ray crystallography, 2.3 Å” value was “NOG was stabilized through hydrophilic and hydrophobic interactions with several nearby residues”.

B1: 19-bp 5mC-dsDNA (dsDNA)
DNA 1: TCTGGAACGGAATTCTTCA
DNA 2: TGAAGAATTCCGTTCCAGA
modifications: 5mC at position 8 of strand 1
Regarding B1, the binding result in data set [2], in data set [3] and in data set [4] was “no binding” each time.

B2: 12-bp 5mC-dsDNA (dsDNA)
DNA 1: CGATCCGCTACG
DNA 2: CGTAGCTGATCG
modifications: 5mC at position 6 of strand 1
Turning to B2, the binding result in data set [5] was “binds”.
